According to the supplement of paper PMC7877785:
± gives the uncertainty stated by the source.

Assay: self-splicing fitness, log relative to wild type (ln ratio); higher = more splicing; Tetrahymena group I intron in knt gene, E. coli kanamycin selection, DiMSum; sequences stand for … in CUCUCU…GGAGGGAAAAGUUAUCAGGCAUGCACCUGGUAGCUAGUCUUUAAACCAAUAGAUUGCAUCGGUUUAAAAGGCAAGACCGUCAAAUUGCGGGAAAGGGGUCAACAGCCGUUCAGUACCAAGUCUCAGGGGAAACUUUGAGAUGGCCUUGCAAAGGGUAUGGUAAUAAGCUGACGGACAUGGUCCUAACCACGCAGCCAAGUCCUAAGUCAACAGAUCUUCUGUUGAUAUGGAUGCAGUUCACAGACUAAAUGUCGGUCGGGGAAGAUGUAUUCUUCUCAUAAGAUAUAGUCGGACCUCUCCUUAAUGGGAGCUAGCGGAUGAAGUGAUGCAACACUGGAGCCGCUGGGAACUAAUUUGUAUGCGAAAGUAUAUUGAUUAGUUUUGGAGUACUCGUGGUCG
How it was run: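 Colonies from six replicate transformations of E. coli BL21(DE3) were pooled and amplicon-sequenced on an Illumina HiSeq 2500. The library placed an intron with all eight P1ex-region nucleotides randomised inside the knt kanamycin-resistance gene on pET-22b(+), and cells grew overnight at 37°C or 30°C on LB agar with or without 25 μg/mL kanamycin (plus 100 μg/mL carbenicillin, 50 μM IPTG, 0.2% rhamnose). Fitness is the DiMSum error-weighted combination of wild-type-normalised replicate fold changes, kanamycin versus none.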

Sequence	self-splicing fitness (ln) (30 °C)	self-splicing fitness (ln) (37 °C)
CGGUAGCAAUAUUACGCUGU	-3.2 ± 0.23	-3.02 ± 0.37
GACGAGCAAUAUUACGGAGG	-3.68 ± 0.26	-2.97 ± 0.35
CCUAAGCAAUAUUACGGCAG	-2.09 ± 0.084	-1.21 ± 0.098
GACGAGCAAUAUUACGCUCU	-3.92 ± 0.27	-1.64 ± 0.32
AAACAGCAAUAUUACGGCAA	-0.944 ± 0.096	-0.612 ± 0.11
UAUGAGCAAUAUUACGCUUU	-4.14 ± 0.33	-2.65 ± 0.36
CUACAGCAAUAUUACGUAAC	-3.34 ± 0.16	-2.03 ± 0.21
ACGUAGCAAUAUUACGGCUG	-3.21 ± 0.28	-1.83 ± 0.25
GAUGAGCAAUAUUACGGCCG	0.414 ± 0.41	
CUCCAGCAAUAUUACGCAGG	-3.95 ± 0.21	-2.83 ± 0.27
GUUAAGCAAUAUUACGUCCC	0.552 ± 0.49	
CAAAAGCAAUAUUACGCCUA	-2.75 ± 0.27	-1.51 ± 0.17
GAGGAGCAAUAUUACGGUGA	-3.55 ± 0.37	-1.49 ± 0.28
UGAUAGCAAUAUUACGAUUU	-1.76 ± 0.1	-1.13 ± 0.12
CUCUAGCAAUAUUACGGGCG	-2.25 ± 0.17	-2.36 ± 0.19
UAGGAGCAAUAUUACGUUCC	-2.97 ± 0.4	
AAGGAGCAAUAUUACGUCGC		-1.49 ± 0.35
AGGGAGCAAUAUUACGGUGA	-1.8 ± 0.24	-1.66 ± 0.26
ACGCAGCAAUAUUACGUGUA	-2.93 ± 0.11	-1.6 ± 0.082
AGAAAGCAAUAUUACGCAAC	-1.96 ± 0.25	-2.02 ± 0.39

Sequence	self-splicing fitness (ln) (30 °C)	self-splicing fitness (ln) (37 °C)
UUUCAGCAAUAUUACGUUGC	-4.04 ± 0.29	-2.5 ± 0.24
GGUUAGCAAUAUUACGCGGG	-3.71 ± 0.22	-1.23 ± 0.12
UGAUAGCAAUAUUACGGCAG	0.188 ± 0.17	0.0746 ± 0.18
AAUAAGCAAUAUUACGAGGU	-4.58 ± 0.27	-2.11 ± 0.18
ACCCAGCAAUAUUACGAGGC	-2.72 ± 0.1	-0.981 ± 0.089
GUAAAGCAAUAUUACGUAGU	-2.42 ± 0.12	-1.36 ± 0.18
UAUGAGCAAUAUUACGGCCG	-1.33 ± 0.36	-1.01 ± 0.35
ACGGAGCAAUAUUACGAGCA	-3.2 ± 0.34	
ACAGAGCAAUAUUACGUGAG	-2.08 ± 0.11	-1.55 ± 0.1
GACAAGCAAUAUUACGGUAU	-1.29 ± 0.073	-1.17 ± 0.087
AAUUAGCAAUAUUACGUCGA	-1.22 ± 0.14	-0.488 ± 0.15
AAGCAGCAAUAUUACGUCGA	-1.03 ± 0.12	-0.392 ± 0.11
UUUGAGCAAUAUUACGACCU	-2.7 ± 0.26	-1.02 ± 0.34
UAUCAGCAAUAUUACGAGCG	-0.616 ± 0.059	0.345 ± 0.088
UUACAGCAAUAUUACGCAGC	-4.38 ± 0.26	-3.01 ± 0.16
CGCGAGCAAUAUUACGCUGU	-2.6 ± 0.16	-2.74 ± 0.31
AGUAAGCAAUAUUACGGAAC	-1.82 ± 0.25	-2.6 ± 0.27
GUCGAGCAAUAUUACGCUAU	-2.01 ± 0.12	-1.36 ± 0.12
CCCCAGCAAUAUUACGUUCU	-4.2 ± 0.27	-3.05 ± 0.17
